Test results from PMC11544209.

Biological target: T1, PsCas9 WT (UniProt PDB:8UMF_1 1-1462)
T1 sequence: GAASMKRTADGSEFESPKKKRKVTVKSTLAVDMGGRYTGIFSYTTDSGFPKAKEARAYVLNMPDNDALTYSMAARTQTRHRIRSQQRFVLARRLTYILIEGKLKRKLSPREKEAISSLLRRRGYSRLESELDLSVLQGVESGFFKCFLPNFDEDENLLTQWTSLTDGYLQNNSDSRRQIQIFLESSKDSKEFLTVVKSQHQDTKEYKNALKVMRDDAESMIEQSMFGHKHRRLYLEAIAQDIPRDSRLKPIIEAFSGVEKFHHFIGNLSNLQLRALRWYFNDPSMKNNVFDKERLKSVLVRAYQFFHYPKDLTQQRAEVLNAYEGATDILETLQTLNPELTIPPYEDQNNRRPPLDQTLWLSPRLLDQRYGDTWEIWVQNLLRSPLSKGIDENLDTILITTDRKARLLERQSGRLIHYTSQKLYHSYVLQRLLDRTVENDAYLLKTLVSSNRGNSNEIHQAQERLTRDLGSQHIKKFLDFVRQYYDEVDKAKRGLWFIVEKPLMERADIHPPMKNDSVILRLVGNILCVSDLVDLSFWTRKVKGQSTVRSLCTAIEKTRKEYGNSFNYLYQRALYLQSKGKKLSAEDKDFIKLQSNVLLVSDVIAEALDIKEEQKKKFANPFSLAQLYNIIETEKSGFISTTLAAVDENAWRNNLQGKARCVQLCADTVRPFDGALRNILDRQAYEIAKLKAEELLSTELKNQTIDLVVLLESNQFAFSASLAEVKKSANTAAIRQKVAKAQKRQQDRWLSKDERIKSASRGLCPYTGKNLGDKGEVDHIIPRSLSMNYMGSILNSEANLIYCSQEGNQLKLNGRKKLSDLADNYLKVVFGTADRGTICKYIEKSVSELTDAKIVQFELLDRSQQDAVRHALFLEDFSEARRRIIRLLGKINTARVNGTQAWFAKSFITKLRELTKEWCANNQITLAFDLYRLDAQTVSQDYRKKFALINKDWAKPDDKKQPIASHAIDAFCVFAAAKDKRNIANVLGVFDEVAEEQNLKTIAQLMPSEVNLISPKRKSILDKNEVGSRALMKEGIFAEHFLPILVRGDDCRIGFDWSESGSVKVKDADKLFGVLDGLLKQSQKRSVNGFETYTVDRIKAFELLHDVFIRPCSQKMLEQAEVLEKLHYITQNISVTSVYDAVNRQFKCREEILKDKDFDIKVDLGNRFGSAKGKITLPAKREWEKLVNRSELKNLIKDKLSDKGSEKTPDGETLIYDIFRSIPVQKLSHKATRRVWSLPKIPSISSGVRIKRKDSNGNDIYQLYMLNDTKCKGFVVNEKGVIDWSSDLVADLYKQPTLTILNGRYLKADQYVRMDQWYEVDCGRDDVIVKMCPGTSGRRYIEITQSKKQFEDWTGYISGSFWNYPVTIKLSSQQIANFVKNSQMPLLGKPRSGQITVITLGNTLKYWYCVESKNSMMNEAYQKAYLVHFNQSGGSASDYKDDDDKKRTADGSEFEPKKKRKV
Test: fluorescence polarization

B1: EMX1a 38 bp target + PsCas9 original EMX1a sgRNA (mixed)
DNA 1: TGTATGTCACCTCCAATGACTAGGGTGGTACACAAACA
DNA 2: TGTTTGTGTACCACCCTAGTCATTGGAGGTGACATACA
  Kd: ~112 nM
